This note sets out measurements from PMC3529520.

Assay [1] addresses YFP-tagged murine Syx S806A (mouse) (UniProt Q66T02). In words: co-IP.
For assay [2], the target named is Mupp1 (UniProt O75970). In words: co-IP with anti-GFP, Mupp1 blot. The conditions noted are these: reference: wild-type YFP-Syx; sites S806.

Sequence of UniProt Q66T02 (Q66T02 whole entry S806A): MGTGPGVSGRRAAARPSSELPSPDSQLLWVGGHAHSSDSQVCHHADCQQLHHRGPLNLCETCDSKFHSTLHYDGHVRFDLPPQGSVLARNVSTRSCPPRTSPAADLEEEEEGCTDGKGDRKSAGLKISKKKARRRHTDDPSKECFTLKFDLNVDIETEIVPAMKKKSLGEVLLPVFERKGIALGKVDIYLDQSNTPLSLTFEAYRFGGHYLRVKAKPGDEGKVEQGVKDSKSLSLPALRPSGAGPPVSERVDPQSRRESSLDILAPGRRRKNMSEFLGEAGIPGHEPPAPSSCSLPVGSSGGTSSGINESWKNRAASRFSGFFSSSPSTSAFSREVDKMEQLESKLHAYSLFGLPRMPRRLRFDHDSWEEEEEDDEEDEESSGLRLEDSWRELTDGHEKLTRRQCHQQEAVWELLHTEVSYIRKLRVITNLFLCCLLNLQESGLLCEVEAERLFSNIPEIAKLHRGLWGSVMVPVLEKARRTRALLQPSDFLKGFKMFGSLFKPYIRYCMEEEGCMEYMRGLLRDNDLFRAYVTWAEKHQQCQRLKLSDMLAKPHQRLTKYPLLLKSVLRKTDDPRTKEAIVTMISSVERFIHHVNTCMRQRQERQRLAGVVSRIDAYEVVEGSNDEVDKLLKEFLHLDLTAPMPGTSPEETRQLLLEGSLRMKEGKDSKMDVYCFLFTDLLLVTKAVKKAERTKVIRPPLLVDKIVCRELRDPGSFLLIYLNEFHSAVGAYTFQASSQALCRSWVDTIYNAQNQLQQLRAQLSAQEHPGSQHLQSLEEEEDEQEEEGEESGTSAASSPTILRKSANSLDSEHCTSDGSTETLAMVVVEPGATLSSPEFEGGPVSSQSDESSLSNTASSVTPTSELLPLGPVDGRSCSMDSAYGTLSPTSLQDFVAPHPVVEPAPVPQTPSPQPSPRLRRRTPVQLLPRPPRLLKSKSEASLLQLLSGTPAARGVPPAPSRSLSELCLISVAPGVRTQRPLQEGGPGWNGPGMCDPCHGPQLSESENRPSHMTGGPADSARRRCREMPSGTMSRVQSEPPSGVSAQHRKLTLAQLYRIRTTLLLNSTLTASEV

For “Mupp1 (multiple PDZ domain protein 1), O75970 1-2070”, in assay [1], the amount of Mupp1 coimmunoprecipitated, fold of that with YFP-Syx is 2 fold. As for “Syx (murine, YFP-mSyx) (from UniProt Q66T02) YFP-Syx-S806A”, in assay [2], the fold change entry is reported as “stronger”.
